Laboratory results as given in patent US20140186897A1, “TRANSFORMANT OF YEAST OF GENUS SCHIZOSACCHAROMYCES, METHOD FOR PRODUCING SAME, METHOD FOR PRODUCING ß-GLUCOSIDASE, AND CELLULOSE DEGRADATION METHOD” (ASAHI GLASS COMPANY, LIMITED, priority 2011, published 2014).

How the values were obtained:
[1] = glucosidase activity measurement of culture supernatant (pNPG); assay type: biochemical; details: Example 9, Table 11
Procedure: A mutant strain which formed a large colony was selected from P3AaBGL1 mutant strain library. Then, thus selected strain and P3ASP3326 strain as the original strain were cultivated in 150 μl/well (96-well plate) of YES medium at 30° C. for two days. 50 μl of each culture supernatant was diluted by 150 μl of 50 mM acetate buffer (pH 5.0) to prepare a diluted enzyme sample. Then, the enzymatic activity of the sample was measured in accordance with the following method.
To 10 μl of 20 mM p-nitrophenyl-β-D-glucoside (hereinafter abbreviated as pNPG), 10 μl of 1M sodium acetate buffer solution (pH 5.0) and 130 μl of water were added, and then 50 μl of the diluted enzyme sample was introduced for reacting them at 37° C. for 10 minutes. 100 μl of the reaction mixture was mixed with 100 μl of 2% sodium carbonate solution to terminate reaction, and then the amount of free p-nitrophenol was colorimetrically measured at a wavelength of 450 nm.
The amount of enzyme that produces 1 μmol of p-nitrophenol per minute was defined as 1 U.
The P3AaBGL1 mutant strain obtained as above was cultivated in YES medium at 30° C. for one day. 100 μl of the culture broth was inoculated on 5 ml of YPD medium (1% of yeast extract, 2% of peptone, and 2% of glucose), followed by cultivation at 30° C. for two days. Thereafter, the culture broth was centrifuged to obtain a culture supernatant.
(§1) By using the above-obtained culture supernatant of the P3AaBGL1 mutant strain, a diluted enzyme sample was prepared, and then the enzymatic activity of the sample was measured in accordance with the above-described activity measurement method. Further, the glucose inhibition at a final glucose concentration of from 0.1 to 200 mM and the thermostability at a warming temperature of from 50 to 75° C. were measured for evaluation.

[2] = glucose inhibition measurement (residual glucosidase activity in the presence of glucose); assay type: biochemical
Procedure: To 10 μl of 20 mM pNPG, 10 μl of 1M sodium acetate buffer solution (pH 5.0) and from 4 to 10 μl of 1M glucose (final concentration of from 20 to 50 mM) were added, followed by addition of water up to the total volume of 150 μl. Thereafter, 50 μl of the diluted enzyme sample was introduced for reacting them at 37° C. for 10 minutes. As a control, a glucose-free reaction mixture was used, and then the reaction was carried out at 37° C. for 10 minutes, in the same manner. 100 μl of each reaction mixture was mixed with 100 μl of 2% sodium carbonate solution to terminate reaction, and then the amount of liberated p-nitrophenol was colorimetrically measured at a wavelength of 450 nm.
The ratio (%) of the colorimetric value of each reaction mixture to the colorimetric value of the control sample (glucose-free sample) was defined as the residual activity after glucose inhibition.
as §1
(§2) 11F10 strain, 22A12 strain, 28C02 strain, 29F09 strain and mutBGL1 strain selected from the mutant strains, and ASP3326 strain as the original strain were cultivated in a Sakaguchi flask containing 100 ml of YPD medium at 30° C. for two days. To each of the culture supernatants obtained by cultivating them, […] was added until 80% saturation was reached, thereby to carry out ammonium sulfate precipitation at 4° C. for 2 hours. Thereafter, centrifugation was carried out to collect pellets, and the pellets were dissolved in 10 ml of 10 mM citrate phosphate buffer solution (pH 7.0). Then, desalting and concentration were carried out by using an ultrafiltration membrane having MWCO of 100,000, thereby to recover 1 ml of a crude liquid. Thus recovered crude liquid was purified by using Hitrap QXL column to collect a fraction of a peak of pNPG activity, thereby to obtain a purified sample. Elution was carried out by using a 10 mM citrate phosphate buffer solution (pH 7.0) and a NaCl concentration gradient (0 to 1M).
(§3) In the same manner as in Example 1, the residual glucosidase activities after glucose inhibition at a glucose concentration of from 0.1 to 200 mM were measured. Further, the residual glucosidase activities after heat treatment at a temperature of from 50 to 75° C. for 10 minutes were measured.

[3] = thermostability measurement (residual glucosidase activity after heat treatment); assay type: physicochemical
Procedure: To 10 μl of 20 mM pNPG, 10 μl of 1M sodium acetate buffer solution (pH 5.0) and 130 μl of water were added, and then 50 μl of a diluted enzyme sample preliminarily heat-treated at […] for 10 minutes was introduced for reacting them at 37° C. for 10 minutes. As a control, a diluted enzyme sample which was not subjected to the heat treatment was used, and then the reaction was carried out at 37° C. for 10 minutes, in the same manner. 100 μl of each reaction mixture was mixed with 100 μl of 2% sodium carbonate solution to terminate reaction, and then the amount of liberated p-nitrophenol was colorimetrically measured at a wavelength of 450 nm.
The ratio (%) of the colorimetric value of each reaction mixture to the colorimetric value of the control sample (untreated sample) was defined as the residual activity after heat treatment.
as §1, §2, §3

[4] = compared with P3AaBGL1 / β-glucosidase without the mutation

B1: Q156L: modified-type P3AaBGL1 with Q156L only (protein)
chain: MKITAVIALLFSLAAASPIPVADPGVVSVSLKKRADELAFSPPFYPSPWANGQGEWAEAYQRAVAIVSQMTLDEKVNLTTGTGWELEKCVGQTGGVPRLNIGGMCLQDSPLGIRDSDYNSAFPAGVNVAATWDKNLAYLRGQAMGQEFSDKGIDVLLGPAAGPLGRSPDGGRNWEGFSPDPALTGVLFAETIKGIQDAGVVATAKHYILNEQEHFRQVAEAAGYGFNISDTISSNVDDKTIHEMYLWPFADAVRAGVGAIMCSYNQINNSYGCQNSYTLNKLLKAELGFQGFVMSDWGAHHSGVGSALAGLDMSMPGDITFDSATSFWGTNLTIAVLNGTVPQWRVDDMAVRIMAAYYKVGRDRLYQPPNFSSWTRDEYGFKYFYPQEGPYEKVNHFVNVQRNHSEVIRKLGADSTVLLKNNNALPLTGKERKVAILGEDAGSNSYGANGCSDRGCDNGTLAMAWGSGTAEFPYLVTPEQAIQAEVLKHKGSVYAITDNWALSQVETLAKQASVSLVFVNSDAGEGYISVDGNEGDRNNLTLWKNGDNLIKAAANNCNNTIVVIHSVGPVLVDEWYDHPNVTAILWAGLPGQESGNSLADVLYGRVNPGAKSPFTWGKTREAYGDYLVRELNNGNGAPQDDFSEGVFIDYRGFDKRNETPIYEFGHGLSYTTFNYSGLHIQVLNASSNAQVATETGAAPTFGQVGNASDYVYPEGLTRISKFIYPWLNSTDLKASSGDPYYGVDTAEHVPEGATDGSPQPVLPAGGGSGGNPRLYDELIRVSVTVKNTGRVAGDAVPQLYVSLGGPNEPKVVLRKFDRLTLKPSEETVWTTTLTRRDLSNWDVAAQDWVITSYPKKVHVGSSSRQLPLHAALPKVQ
Activity [1]: 507 mU/ml | Residual glucosidase activity, Glc 0 mM ([2]; Example 9, glucose 0 mM (reference set to 100)): 100% | Residual glucosidase activity, Glc 1 mM ([2]; Example 9, glucose 1 mM): 92.8% | Residual glucosidase activity, Glc 5 mM ([2]; Example 9, glucose 5 mM): 64.9% | Residual glucosidase activity, Glc 10 mM ([2]; Example 9, glucose 10 mM): 46.8% | Residual glucosidase activity, Glc 20 mM ([2]; Example 9, glucose 20 mM): 31.5% | Residual glucosidase activity, Glc 50 mM ([2]; Example 9, glucose 50 mM): 15.5% | Residual glucosidase activity, Glc 100 mM ([2]; Example 9, glucose 100 mM): 8.8% | Residual glucosidase activity, Glc 200 mM ([2]; Example 9, glucose 200 mM): 5.4% | resistance to glucose inhibition (in words) [2, 4]: decrease | Residual glucosidase activity, Temp 50° C. ([3]; Example 9, 10 minutes at 50° C.): 93.9% | Residual glucosidase activity, Temp 55° C. ([3]; Example 9, 10 minutes at 55° C.): 89.7% | Residual glucosidase activity, Temp 60° C. ([3]; Example 9, 10 minutes at 60° C.): 83.9% | Residual glucosidase activity, Temp 65° C. ([3]; Example 9, 10 minutes at 65° C.): 46.0% | Residual glucosidase activity, Temp 70° C. ([3]; Example 9, 10 minutes at 70° C.): 6.3% | Residual glucosidase activity, Temp 73° C. ([3]; Example 9, 10 minutes at 73° C.): 0.9% | Residual glucosidase activity, Temp 75° C. ([3]; Example 9, 10 minutes at 75° C.): 1.4% | Residual glucosidase activity, Untreated ([3]; Example 9, no heat treatment (reference set to 100)): 100% | thermostability (in words) [3, 4]: decrease
